Starred links: 1 amine or outer side, 2 acyl side, 3 side chain; linkers in the order of their positions; H or OH if unused. Positions of bridges follow the written chain, without caps; N, C: chain ends. Non-standard residues stand in square brackets, D forms with d. Primed or numbered codes have the meaning given here. PyrS2″ = (S)-3-amino-1-((pent-4-en-1-yloxy)carbonyl)pyrrolidine-3-carboxylic acid (stapling residue), C=CCCCOC(=O)N1CC[C@@](N[*:1])(C(=O)[*:2])C1; B5(4) = 2,2-bis(4-pentenyl)glycine = 2-amino-2-(pent-4-en-1-yl)hept-6-enoic acid (stitching residue), C=CCCCC(CCCC=C)(N[*:1])C(=O)[*:2]; TfeGA = (S)-2-amino-3-((carboxymethyl)(2,2,2-trifluoroethyl)amino)propanoic acid, O=C([C@H](CN(CC(=O)[*:3])CC(F)(F)F)N[*:1])[*:2]; B5(3) = 2,2-bis(4-pentenyl)glycine (stitching residue), C=CCCCC(CCCC=C)(N[*:1])C(=O)[*:2]; Bta = N[C@@H](Cc1csc2ccccc12)C(=O)O; αAllylPro = C=CC[C@@]1(C(=O)O)CCCN1; tBuAla = CC(C)(C)C[C@H](N)C(=O)O; 3Thi = N[C@@H](Cc1ccsc1)C(=O)O
T1: B-cat-Halo (UniProt P35222 1-781)
T1 sequence (looked up): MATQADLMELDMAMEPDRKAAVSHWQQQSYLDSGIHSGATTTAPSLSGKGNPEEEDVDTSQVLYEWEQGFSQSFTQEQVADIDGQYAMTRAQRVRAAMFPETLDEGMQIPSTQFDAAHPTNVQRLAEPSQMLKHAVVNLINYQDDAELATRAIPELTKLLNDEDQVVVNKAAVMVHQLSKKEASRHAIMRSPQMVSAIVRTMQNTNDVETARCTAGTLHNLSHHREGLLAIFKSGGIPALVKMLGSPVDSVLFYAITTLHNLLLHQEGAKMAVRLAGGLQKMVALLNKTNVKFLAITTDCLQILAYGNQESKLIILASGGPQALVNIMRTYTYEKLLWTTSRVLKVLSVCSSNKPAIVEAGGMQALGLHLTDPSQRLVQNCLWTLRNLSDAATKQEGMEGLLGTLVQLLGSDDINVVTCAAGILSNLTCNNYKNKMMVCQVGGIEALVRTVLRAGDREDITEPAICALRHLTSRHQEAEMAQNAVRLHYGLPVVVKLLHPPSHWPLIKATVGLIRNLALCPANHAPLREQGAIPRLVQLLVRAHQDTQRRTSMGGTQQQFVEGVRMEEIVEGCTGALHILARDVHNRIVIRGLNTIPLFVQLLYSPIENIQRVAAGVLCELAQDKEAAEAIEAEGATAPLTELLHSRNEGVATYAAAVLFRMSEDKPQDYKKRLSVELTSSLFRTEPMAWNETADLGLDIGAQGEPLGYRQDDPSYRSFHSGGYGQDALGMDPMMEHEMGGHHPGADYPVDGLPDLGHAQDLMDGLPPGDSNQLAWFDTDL

T2: beta-catenin in DLD1 TCF/LEF luciferase reporter cells (UniProt P35222 2-781)
T2 sequence (looked up): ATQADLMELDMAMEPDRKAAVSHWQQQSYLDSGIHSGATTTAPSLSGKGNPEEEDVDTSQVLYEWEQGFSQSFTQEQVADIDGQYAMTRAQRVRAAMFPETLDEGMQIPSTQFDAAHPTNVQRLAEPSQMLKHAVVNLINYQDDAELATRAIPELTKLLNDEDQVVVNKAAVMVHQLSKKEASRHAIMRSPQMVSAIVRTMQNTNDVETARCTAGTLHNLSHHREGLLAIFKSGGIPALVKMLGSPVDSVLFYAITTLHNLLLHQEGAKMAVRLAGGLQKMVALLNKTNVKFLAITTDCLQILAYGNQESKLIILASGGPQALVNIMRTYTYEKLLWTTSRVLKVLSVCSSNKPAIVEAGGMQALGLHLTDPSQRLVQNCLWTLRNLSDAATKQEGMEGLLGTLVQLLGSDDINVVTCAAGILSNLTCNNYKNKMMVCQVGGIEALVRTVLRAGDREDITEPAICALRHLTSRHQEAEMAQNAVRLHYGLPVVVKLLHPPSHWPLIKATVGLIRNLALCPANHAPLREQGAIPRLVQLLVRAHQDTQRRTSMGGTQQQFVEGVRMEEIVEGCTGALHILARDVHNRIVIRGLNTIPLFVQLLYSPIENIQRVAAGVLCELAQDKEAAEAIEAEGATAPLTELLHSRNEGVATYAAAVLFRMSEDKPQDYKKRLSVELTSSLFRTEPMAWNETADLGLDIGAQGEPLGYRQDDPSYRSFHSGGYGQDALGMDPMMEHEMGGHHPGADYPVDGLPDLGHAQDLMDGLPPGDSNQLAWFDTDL

T3: beta-catenin in DLD1 TCF/LEF luciferase reporter cells (UniProt P35222 1-781)
T3 sequence (looked up): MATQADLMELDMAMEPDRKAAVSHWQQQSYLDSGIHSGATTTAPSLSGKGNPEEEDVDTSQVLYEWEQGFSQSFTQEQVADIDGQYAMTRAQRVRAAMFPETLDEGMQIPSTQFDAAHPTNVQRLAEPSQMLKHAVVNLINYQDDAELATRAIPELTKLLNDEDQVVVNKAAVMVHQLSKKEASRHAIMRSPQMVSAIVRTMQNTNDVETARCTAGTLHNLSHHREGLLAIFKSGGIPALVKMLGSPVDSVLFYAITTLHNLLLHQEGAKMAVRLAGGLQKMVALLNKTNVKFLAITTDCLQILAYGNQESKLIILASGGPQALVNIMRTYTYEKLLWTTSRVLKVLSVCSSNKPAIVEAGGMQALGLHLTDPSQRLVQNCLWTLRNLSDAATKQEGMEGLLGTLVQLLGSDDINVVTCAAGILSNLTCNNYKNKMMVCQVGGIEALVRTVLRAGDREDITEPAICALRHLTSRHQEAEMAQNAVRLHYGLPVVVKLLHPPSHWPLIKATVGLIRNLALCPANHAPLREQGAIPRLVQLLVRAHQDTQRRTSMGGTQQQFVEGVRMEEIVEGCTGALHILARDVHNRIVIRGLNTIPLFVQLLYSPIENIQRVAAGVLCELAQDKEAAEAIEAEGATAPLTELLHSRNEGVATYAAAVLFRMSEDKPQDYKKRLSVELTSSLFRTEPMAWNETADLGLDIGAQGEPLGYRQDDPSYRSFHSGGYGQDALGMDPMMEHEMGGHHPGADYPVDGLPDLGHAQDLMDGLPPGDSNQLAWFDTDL

T4: B-cat-Halo (UniProt P35222 1-781)
T4 sequence (looked up): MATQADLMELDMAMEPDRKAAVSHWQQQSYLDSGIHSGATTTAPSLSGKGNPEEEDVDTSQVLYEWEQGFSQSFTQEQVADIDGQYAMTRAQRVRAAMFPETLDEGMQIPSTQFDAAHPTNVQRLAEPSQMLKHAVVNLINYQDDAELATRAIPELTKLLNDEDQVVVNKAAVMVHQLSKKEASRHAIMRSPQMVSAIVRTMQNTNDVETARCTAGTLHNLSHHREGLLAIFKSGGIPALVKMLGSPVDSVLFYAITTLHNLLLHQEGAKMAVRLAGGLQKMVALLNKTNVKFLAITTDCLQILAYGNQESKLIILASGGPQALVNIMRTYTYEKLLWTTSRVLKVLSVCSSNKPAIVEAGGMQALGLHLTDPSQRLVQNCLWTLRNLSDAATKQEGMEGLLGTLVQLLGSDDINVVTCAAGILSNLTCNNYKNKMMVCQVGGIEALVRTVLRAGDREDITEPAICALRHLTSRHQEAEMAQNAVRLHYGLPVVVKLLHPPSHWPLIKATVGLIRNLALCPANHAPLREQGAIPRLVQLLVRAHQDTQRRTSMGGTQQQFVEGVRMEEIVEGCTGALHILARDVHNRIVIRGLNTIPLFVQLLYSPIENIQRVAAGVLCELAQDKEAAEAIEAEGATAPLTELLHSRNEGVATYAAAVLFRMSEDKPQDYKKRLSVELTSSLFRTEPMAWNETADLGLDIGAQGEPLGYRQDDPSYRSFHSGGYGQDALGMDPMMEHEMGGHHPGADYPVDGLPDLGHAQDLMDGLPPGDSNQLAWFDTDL


Experiments:
Assay in all cases: cell-based or functional assay
B-cat-Halo [1] = biological target: T1, B-cat-Halo
[2] = biological target: T2, beta-catenin in DLD1 TCF/LEF luciferase …
[3] = biological target: T3, beta-catenin in DLD1 TCF/LEF luciferase …
B-cat-Halo [4] = biological target: T4, B-cat-Halo; remark: listed apart in the source

| NanoBRET Abs IC50 (B-cat-Halo [1]) [µM] | DLD1 4% Abs IC50 [2] [µM] | DLD1 4% Abs IC50 [3] [µM] | NanoBRET Abs IC50 (B-cat-Halo [4]) [µM] | Binder |
| --- | --- | --- | --- | --- |
| 4.3 | 2.7 | – | – | Ac-[αAllylPro]D[tBuAla][B5(3)]D[(Tfb)GA]AAFL[PyrS2″][3Thi][Bta]Q-NH2 (staple 1-4, 4-11) [I-1629] |
| – | – | 1.9 | 3.9 | Ac-[αAllylPro]D[tBuAla][B5(4)]D[TfeGA]AAFL[PyrS2″][3Thi][Bta]A-NH2 (staple 1-4, 4-11) [I-1710] |
